# In patent publication US20030208060A1 (published 2003):
# B1: GST fusion protein containing apoB48R amino acid 629-1088 (other)
# chain: QEDAADGEQREEEETAGGQTLAAEAEGDRESELSEVPEAGGEGLTTQDAGCGTEEGEASVSENQELDGSTGADAGPCPSLGEAYARETEDEEAEADRTSRRGWRLQAVAVGLPDREDAQTGSVAAGIMGGDVVPHISAAGAGEALEGALGQGWDSKEKEEAAAGEHAGGQEFGLEGSAEEEVTGRGSQVEAFESREGGPWGGRVEAEESAGAEDSCGLDPAGSQTARAEGMGAMVEAGGLLEKWTLLEEEAVGWQEREQREDSEGRCGDYHPEGEAPRLLDAEGLMVTGGRRAEAKETEPESLEHVRGQEEQPTHQAPAEAAPESVGEAETAEAMGSARGGAANSWSEAPLPGSLLDVSVPRSRVHLSRSSSQRRSRPSFRRTPAWEQQEEPPAPNPPEEELSAPEQRPLQLEEPLEPSPLRHDGTPVPARRRPLGHGFGLAHPGMMQELQARLGRPKPQ
# notes: not shown: glutathione-S-transferase of the pGEX-5X-3 vector (Pharmacia)
# B2: glutathione-S-transferase (GST)-fusion protein containing apoB48R amino acid 223 to 710 (other)
# chain: EMEQGVREADAGETEEPGAEGAGKGEEVVVVEKACESTRAWGTWGPGAEPEDWGILGREEARTTPGREEARAILDGEEARTISGGEEAETASGGEEAETASGGEEAGTASGGEEAGISSGGEAGTASGGEEAGTASGGDEAWTTSGKEEADLLGVRQTQYGAVPGERLLEATGKVWVLEEEGDEEREAEVSPFPKQAQVLGTERTEEAAESQTAGREAVGGQEAGESFEGQVDLRGKEAEMRQDLGIRADRAKMEELVQAEEAQEERGSSRDPVAELPSDGEAEGTADLEATPEARPEEELTGEESEAAQTSCGLLGVEWGGLTHSVTKGQGPELMGGAQTPTKQPEEREAGEVELMGVLALSKEEQERSLEAGPRHAGSVKPEASEAFPGAWENRTRKDMERGNTQEDAADGEQREEEETAGGQTLAAEAEGDRESELSEVPEAGGEGLTTQDAGCGTEEGEASVSENQELDGSTGADAGPCPSLGE
# notes: Migrates as a dimer on SDS-PAGE; also called apoB48R-GST fusion protein (aa 223-710); not shown: glutathione-S-transferase of the pGEX-5X-3 vector (Pharmacia)
# B3: human receptor-associated protein (RAP) (other, UniProt P30533 35-357, looked up)
# chain: YSREKNQPKPSPKRESGEEFRMEKLNQLWEKAQRLHLPPVRLAELHADLKIQERDELAWKKLKLDGLDEDGEKEARLIRNLNVILAKYGLDGKKDARQVTSNSLSGTQEDGLDDPRLEKLWHKAKTSGKFSGEELDKLWREFLHHKEKVHEYNVLLETLSRTEEIHENVISPSDLSDIKGSVLHSRHTELKEKLRSINQGLDRLRRVSHQGYSTEAEFEEPRVIDLWDLAQSANLTDKELEAFREELKHFEAKIEKHNHYQKQLEIAHEKLRHAESVGDGERVSRSREKHALLEGRTKELGYTVKKHLQDLSGRISRARHNEL
# B4: MBP200 (membrane binding protein of ~200 kDa; human monocyte-macrophage apoB48 receptor, apoB48R) (receptor)
# chain: MDFLRLYLPGLHQALRGALDSLGTFVSYLLGDAVPTVEREAQAAEELGVVAVGKTGKIVEEEAQEDLEGLRGSQNEGAGRLRGPGDDRRHEVGSSAVEQTWGWGDGSSHGSQAERQDSGAGETAKAARCQEPSAHLEARKKSKAGSGACQDRSGQAQERQESHEQEVNREERLRSWEQEEEEEEVRAREPGMARGAESEWTWHGETEGKAGAVGPKAAGDNREMEQGVREADAGETEEPGAEGAGKGEEVVVVEKACESTRAWGTWGPGAEPEDWGILGREEARTTPGREEARAILDGEEARTISGGEEAETASGGEEAETASGGEEAGTASGGEEAGISSGGEAGTASGGEEAGTASGGDEAWTTSGKEEADLLGVRQTQYGAVPGERLLEATGKVWVLEEEGDEEREAEVSPFPKQAQVLGTERTEEAAESQTAGREAVGGQEAGESFEGQVDLRGKEAEMRQDLGIRADRAKMEELVQAEEAQEERGSSRDPVAELPSDGEAEGTADLEATPEARPEEELTGEESEAAQTSCGLLGVEWGGLTHSVTKGQGPELMGGAQTPTKQPEEREAGEVELMGVLALSKEEQERSLEAGPRHAGSVKPEASEAFPGAWENRTRKDMERGNTQEDAADGEQREEEETAGGQTLAAEAEGDRESELSEVPEAGGEGLTTQDAGCGTEEGEASVSENQELDGSTGADAGPCPSLGEAYARETEDEEAEADRTSRRGWRLQAVAVGLPDREDAQTGSVAAGIMGGDVVPHISAAGAGEALEGALGQGWDSKEKEEAAAGEHAGGQEFGLEGSAEEEVTGRGSQVEAFESREGGPWGGRVEAEESAGAEDSCGLDPAGSQTARAEGMGAMVEAGGLLEKWTLLEEEAVGWQEREQREDSEGRCGDYHPEGEAPRLLDAEGLMVTGGRRAEAKETEPESLEHVRGQEEQPTHQAPAEAAPESVGEAETAEAMGSARGGAANSWSEAPLPGSLLDVSVPRSRVHLSRSSSQRRSRPSFRRTPAWEQQEEPPAPNPPEEELSAPEQRPLQLEEPLEPSPLRHDGTPVPARRRPLGHGFGLAHPGMMQELQARLGRPKPQ
# notes: Native protein in Triton X-114 aqueous-phase extracts of THP-1 monocytes, run on non-reducing SDS-PAGE and blotted to nitrocellulose; Apparent Mr ~200 kD against ~114.8 kD deduced; also called TGRLP receptor; TGRLP/ApoB receptor
# B5: GST fusion protein containing apoB48R amino acid 714-917 (other)
# chain: RETEDEEAEADRTSRRGWRLQAVAVGLPDREDAQTGSVAAGIMGGDVVPHISAAGAGEALEGALGQGWDSKEKEEAAAGEHAGGQEFGLEGSAEEEVTGRGSQVEAFESREGGPWGGRVEAEESAGAEDSCGLDPAGSQTARAEGMGAMVEAGGLLEKWTLLEEEAVGWQEREQREDSEGRCGDYHPEGEAPRLLDAEGLMVTG
# notes: as for B1
# Legend:
# [1] = target: the molecule itself; assay: SDS-PAGE of the purified GST fusion protein
# [2] = target: the molecule itself; assay: SDS-PAGE of the purified fusion protein
# [3] = target: B4; assay: ligand blot
# Method: The ligand blotting assay was performed essentially as described (Gianturco et al., 1988, 1994; Ramprasad et al., 1995) with minor modifications. Aliquots of the detergent extracts were electrophoresed on 5% polyacrylamide gels containing 0.1% SDS (Laemmli, 1970) under non-reducing conditions in a Bio-Rad minigel apparatus and electrotransferred to nitrocellulose. After blocking for 1 hour with 5% Carnation nonfat dry milk in ligand buffer (50 mM Tris-HCl (pH 8), 90 mM NaCl and 2 mM CaCl₂), the blots were rinsed with 0.5% milk in ligand buffer before incubation with lipoproteins in ligand buffer containing 0.05% milk (Gianturco et al., 1988).
# For competitive ligand blots, TGRLP were biotinylated as described (O'Shannessy et al., 1984) and dialyzed extensively before use. […] After extensive washing, bound lipoprotein was detected by incubation with streptavidin linked to alkaline phosphatase, followed by substrates BCIP and NBT (Bio-Rad Laboratories, CA). In some experiments without antibodies as potential competitors, native, unlabeled TGRLP were used as the ligand, and bound TGRLP was detected with anti-apoB followed by alkaline phosphatase-linked secondary antibody. […]
# [4] = target: T1, intermediate density lipoprotein (human, UniProt P04114 28-4563); assay: ligand blot; the binding is of lower affinity
# T1 construct: Lipoprotein particle; also called IDL
# T1 sequence (P04114 28-4563 limits assumed): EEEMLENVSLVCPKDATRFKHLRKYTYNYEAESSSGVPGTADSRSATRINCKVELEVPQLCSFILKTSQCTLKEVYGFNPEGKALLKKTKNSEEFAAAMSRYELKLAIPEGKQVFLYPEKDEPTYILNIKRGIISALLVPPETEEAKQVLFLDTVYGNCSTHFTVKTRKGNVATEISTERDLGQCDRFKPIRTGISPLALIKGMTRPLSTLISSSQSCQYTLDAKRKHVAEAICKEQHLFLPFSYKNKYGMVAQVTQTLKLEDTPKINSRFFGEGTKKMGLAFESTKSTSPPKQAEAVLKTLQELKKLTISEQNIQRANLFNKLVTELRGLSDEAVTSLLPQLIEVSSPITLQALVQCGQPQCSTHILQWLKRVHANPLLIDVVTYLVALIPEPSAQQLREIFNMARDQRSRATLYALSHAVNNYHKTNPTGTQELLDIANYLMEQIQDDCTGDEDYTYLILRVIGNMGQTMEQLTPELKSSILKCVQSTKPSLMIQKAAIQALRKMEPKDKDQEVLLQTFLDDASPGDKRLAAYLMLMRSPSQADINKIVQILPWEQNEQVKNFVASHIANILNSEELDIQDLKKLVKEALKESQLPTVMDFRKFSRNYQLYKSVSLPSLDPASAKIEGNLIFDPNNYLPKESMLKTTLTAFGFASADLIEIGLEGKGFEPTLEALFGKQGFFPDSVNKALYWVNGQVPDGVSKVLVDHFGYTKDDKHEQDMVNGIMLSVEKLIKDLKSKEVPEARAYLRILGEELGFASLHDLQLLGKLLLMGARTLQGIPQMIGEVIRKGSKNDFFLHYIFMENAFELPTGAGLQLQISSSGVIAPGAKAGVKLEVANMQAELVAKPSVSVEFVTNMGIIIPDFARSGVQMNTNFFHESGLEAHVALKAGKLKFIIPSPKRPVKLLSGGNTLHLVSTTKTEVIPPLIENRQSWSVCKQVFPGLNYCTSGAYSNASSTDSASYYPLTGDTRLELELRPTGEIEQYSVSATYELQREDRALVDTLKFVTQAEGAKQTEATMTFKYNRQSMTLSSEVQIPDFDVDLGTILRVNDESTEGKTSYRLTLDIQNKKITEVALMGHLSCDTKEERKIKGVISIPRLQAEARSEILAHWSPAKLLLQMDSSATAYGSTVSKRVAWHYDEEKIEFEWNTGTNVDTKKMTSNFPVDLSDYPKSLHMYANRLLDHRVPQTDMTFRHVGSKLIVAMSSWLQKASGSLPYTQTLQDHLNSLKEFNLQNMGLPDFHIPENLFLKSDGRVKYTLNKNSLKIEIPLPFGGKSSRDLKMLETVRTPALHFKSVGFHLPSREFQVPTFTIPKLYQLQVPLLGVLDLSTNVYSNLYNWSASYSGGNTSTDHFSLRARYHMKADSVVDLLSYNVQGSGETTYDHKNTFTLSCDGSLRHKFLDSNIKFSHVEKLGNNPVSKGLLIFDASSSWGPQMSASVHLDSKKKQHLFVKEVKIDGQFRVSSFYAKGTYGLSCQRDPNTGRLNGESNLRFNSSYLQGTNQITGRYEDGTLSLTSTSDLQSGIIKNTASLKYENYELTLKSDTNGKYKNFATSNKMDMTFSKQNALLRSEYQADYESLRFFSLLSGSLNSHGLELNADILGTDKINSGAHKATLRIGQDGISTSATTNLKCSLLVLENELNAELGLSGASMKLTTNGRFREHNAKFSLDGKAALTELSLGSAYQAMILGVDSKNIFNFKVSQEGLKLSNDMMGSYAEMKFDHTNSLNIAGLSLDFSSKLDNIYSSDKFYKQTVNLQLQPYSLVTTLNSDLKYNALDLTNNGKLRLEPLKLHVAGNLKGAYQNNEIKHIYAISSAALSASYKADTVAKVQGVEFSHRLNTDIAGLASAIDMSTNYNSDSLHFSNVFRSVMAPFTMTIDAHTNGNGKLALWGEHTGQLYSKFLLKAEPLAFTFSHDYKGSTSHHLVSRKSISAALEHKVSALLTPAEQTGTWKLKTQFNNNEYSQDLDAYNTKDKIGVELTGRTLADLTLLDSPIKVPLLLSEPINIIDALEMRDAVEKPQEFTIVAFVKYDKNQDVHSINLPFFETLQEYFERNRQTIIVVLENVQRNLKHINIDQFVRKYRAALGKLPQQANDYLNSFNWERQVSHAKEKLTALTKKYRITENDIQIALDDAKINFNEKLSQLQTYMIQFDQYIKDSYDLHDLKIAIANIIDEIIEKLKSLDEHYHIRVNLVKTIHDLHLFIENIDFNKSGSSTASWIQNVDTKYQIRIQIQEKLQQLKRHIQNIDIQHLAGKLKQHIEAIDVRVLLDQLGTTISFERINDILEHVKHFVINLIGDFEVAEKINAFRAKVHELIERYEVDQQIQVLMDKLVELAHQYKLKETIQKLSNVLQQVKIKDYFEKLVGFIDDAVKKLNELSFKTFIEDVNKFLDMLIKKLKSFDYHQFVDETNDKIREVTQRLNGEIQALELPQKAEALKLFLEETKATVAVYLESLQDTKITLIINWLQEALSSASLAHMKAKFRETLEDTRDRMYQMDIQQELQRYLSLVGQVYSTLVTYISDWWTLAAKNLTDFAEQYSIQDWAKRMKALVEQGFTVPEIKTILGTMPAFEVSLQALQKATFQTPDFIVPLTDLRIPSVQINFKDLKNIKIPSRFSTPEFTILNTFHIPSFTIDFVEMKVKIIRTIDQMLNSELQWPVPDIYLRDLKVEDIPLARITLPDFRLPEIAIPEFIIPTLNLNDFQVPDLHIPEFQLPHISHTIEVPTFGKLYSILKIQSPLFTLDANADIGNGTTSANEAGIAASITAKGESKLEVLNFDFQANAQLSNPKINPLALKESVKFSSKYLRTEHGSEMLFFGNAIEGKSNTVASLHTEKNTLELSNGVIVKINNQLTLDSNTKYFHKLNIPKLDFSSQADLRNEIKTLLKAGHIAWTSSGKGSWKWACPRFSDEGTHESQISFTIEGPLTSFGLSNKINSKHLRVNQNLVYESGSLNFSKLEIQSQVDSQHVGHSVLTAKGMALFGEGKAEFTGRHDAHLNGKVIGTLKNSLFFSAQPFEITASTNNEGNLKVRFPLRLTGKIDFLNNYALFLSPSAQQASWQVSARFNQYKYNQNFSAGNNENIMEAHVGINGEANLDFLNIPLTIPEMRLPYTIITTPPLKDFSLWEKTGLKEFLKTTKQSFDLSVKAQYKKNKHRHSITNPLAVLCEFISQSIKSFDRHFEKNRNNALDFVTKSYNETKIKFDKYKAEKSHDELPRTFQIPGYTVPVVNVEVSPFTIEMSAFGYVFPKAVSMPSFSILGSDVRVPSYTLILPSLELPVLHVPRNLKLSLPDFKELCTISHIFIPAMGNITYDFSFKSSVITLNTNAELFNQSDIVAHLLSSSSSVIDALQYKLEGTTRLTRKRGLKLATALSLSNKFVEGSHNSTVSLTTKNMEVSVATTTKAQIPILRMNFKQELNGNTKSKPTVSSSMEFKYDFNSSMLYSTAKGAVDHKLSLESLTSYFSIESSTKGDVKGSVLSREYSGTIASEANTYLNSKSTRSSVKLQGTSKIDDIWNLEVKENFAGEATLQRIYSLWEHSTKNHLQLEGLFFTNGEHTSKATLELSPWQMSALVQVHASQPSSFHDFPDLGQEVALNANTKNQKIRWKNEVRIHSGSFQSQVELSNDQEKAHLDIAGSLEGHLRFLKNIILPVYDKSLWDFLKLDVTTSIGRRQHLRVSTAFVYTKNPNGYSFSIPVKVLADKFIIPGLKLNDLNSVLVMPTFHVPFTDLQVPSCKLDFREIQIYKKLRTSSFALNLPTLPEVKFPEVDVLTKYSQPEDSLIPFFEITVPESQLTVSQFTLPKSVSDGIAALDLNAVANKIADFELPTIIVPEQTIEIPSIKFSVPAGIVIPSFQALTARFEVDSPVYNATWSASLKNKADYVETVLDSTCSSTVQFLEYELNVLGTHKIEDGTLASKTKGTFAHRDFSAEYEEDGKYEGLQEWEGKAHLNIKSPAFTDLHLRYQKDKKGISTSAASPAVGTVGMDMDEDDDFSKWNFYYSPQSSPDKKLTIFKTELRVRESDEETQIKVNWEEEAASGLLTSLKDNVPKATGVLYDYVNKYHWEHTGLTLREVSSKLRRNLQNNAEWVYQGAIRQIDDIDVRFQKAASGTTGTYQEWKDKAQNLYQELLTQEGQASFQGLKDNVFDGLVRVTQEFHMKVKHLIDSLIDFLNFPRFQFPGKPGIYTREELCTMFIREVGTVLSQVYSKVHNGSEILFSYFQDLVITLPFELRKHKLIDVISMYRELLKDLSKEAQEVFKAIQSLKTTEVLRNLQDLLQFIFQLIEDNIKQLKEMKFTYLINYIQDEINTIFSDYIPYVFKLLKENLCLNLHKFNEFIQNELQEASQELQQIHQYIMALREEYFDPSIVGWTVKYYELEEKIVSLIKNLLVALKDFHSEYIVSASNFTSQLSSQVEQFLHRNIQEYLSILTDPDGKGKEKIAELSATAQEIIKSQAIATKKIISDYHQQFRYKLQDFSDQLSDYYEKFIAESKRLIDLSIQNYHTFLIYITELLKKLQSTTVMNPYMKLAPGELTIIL
# [5] = target: T2, normal VLDL Sf100-400 from a subject with normal plasma TG levels (human, UniProt P04114 28-4563); assay: ligand blot; the binding is of lower affinity
# T2 construct: Lipoprotein particle; also called N-V1; normal very low density lipoprotein
# T2 sequence (P04114 28-4563 limits assumed): as above
# [6] = target: T3, low density lipoprotein (LDL) (human, UniProt P04114 28-4563); assay: ligand blot; lower affinity than HTG TGRLP and chylomicrons
# T3 construct: Lipoprotein particle
# T3 sequence (P04114 28-4563 limits assumed): as above
binder,measurement,setting,value
B1,binding result,[1],no binding
B2,binding result,[2],binds
B3,binding result,[3],no binding
B4,binding result,[4],binds
same,binding result,[5],binds
same,binding result,[6],binds
B5,binding result,[1],no binding
